Data taken from the DeepSol protein solubility set.

Assay: soluble on expression in E. coli; label from the status in PepcDB or PDB records

Sequence	soluble on expression in E. coli
MGSDKIHHHHHHMSEKSASNNKAEFKRQSSPFREIISADHPIYKPAKGRYWLYVALPCPWAQRTLITRALKGLAPIIGCSVAHWHLDDKGWRFLEEGDGKTNERHWFDIAGGISSVNLNTSTPVANIPNNAHRLLVDGTDEPHYGYKRLSDFYFKTKPDYKGRFTVPVLWDLETCTIVNNESSDIIGIMNSAAFDEFVGEEYRQVRLVPRSLEAQITEFNSWVYDKINNGVYKAGFAECAEVYEREVTSLFQYLDKLENLLDKKYTDLEAEYGKNNKDKILDRYFAIGDTLTEADVRLYPTIVRFDVVYHQHFKCNLATIRDDYSRIHTWLKNIYWRHEAFQRTTDFTHIKLGYTRSQPRVNPIGITPLGPKPDIRPP	not soluble
MGATGSSQLEKEISTTESVNNANEHYYGLVNALFFCRPFREKVLNYKQTLKKSGASKDNLVTCLADLFHSIASQKRRVGTIAPKRFITKLKKENELFDNYMQQDAHEFFNYLINTISETLIQEKIAEREKASRHGTLKKGNVTVNLAPATAGLPRSDEKGTSERNGGITVEGNEFLNKSDTTTWIHEIFQGILTNETRCLSCETVSSKDEDFLDLSIDVEQNTSISHCLRVFSETETLCGDQKYFCETCSSKQEAQKRMRIKKPPQLLALHLKRFKFVEPLNRHTKLSYRVVFPLELRLFNVSDDAEYGDRMYDLVATVVHCGATPNRGHYITLVKSNSFWLVFDDDIVEKLEVSSMEEFSGMSTDANIQMPPGNQSAPQKEFRICLYSVLSGKRLRC	not soluble
MSLTIKLIAIDIDGTLLNEKNELAQATIDAVQAAKAQGIKVVLCTGRPLTGVQPYLDAMDIDGDDQYAITFNGSVAQTISGKVLTNHSLTYEDYIDLEAWARKVRAHFQIETPDYIYTANKDISAYTIAESYLVRMLIQYREVSETPRDLTISKAMFVDYPQVIEQVKANMPQDFKDRFSVVQSAPYFIEVMNRRASKGGTLSELVDQLGLTADDVMTLGDQGNDLTMIKYAGLGVAMGNAIDEVKEAAQAVTLTNAENGVAAAIRKYALNEGHHHHHH	soluble
SNAMKLIAIDLDGTLLNSKHQVSLENENALRQAQRDGIEVVVSTGRAHFDVMSIFEPLGIKTWVISANGAVIHDPEGRLYHHETIDKKRAYDILSWLESENYYYEVFTGSAIYTPQNGRELLDVELDRFRSANPEADLSVLKQAAEVQYSQSGFAYINSFQELFEADEPIDFYNILGFSFFKEKLEAGWKRYEHAEDLTLVSSAEHNFELSSRKASKGQALKRLAKQLNIPLEETAAVGDSLNDKSMLEAAGKGVAMGNAREDIKSIADAVTLTNDEHGVAHMMKHLL	soluble
MGSDKIHHHHHHMNRLRYSVNLSYEILDPTGDFLLIVEAAKTARQSVVSERLALTPPAHAARYTDPLGNRLLRIRANKGPLAIRYEAVVDIDHRLDDGMSLTEVPVAELPFDVLSYLAPSRYCESDRMMEFAMREFGSMRPGYSRVYAIREWVRNHVRFLSRSTNERTSAIDTIVERTGVCRDFSHLMIAICRALSIPARMSSSVDYGADPALGAPDFHAVVEVFLSGGWYLLDPSGVSIPTGLLRIGTGRDAADIPFAAIFGKVESKRPFIEIQPIADPVAGIGLPLATTSAISTW	not soluble
MSLAAGYGVPLEQGEHRLGSSRVVVETAGDGLVRYRREVDGGGSVELLFDGTVDLQPVPMYPIFKPLYVTRFILLRIEPRIVVSPGSERTFYTLIPVDTAIYAFPGDEPTIVDVIPMDDKPSLVLYGPPESGVVARLAISSVSPRPEEPSLGRALARIAVKNISGTPVTLSRILLDSAPLKLYFERGTWRAYTQELAVEVERYRGVVMYRQPFREGTMPISDPPEVRPPRFFQRTDMMWGVEGHHHHHH	not soluble
MGKIFCIVQARMGSERLQGKVIKPILKKPMVIYTLDRLKKSKYIDKIVLATSSMERETPLVESCEEYGYDVFKGSEANVLKRYEQAAEKYGANIEDAVIRVTGDCPLIDPIIVDNVVTKFLSSDYDYVRLDVPNTFVRGFDVEIFSMKALKTVNSLINGGKIPKEEADMYKEHVTLYMYKHPNEFKVGYVKGDEFYSKDYRLCVDTKEDFELVKNIYEHFNDEFVSSKNVINYLDRNSEIAQINNDIKQKEVLEHHHHHH	soluble
MVPKTATSTETKTITRIIHYVDKVTNQNVKEDVVQPVTLSRTKTENKVTGVVTYGEWTTGNWDEVISGKIDKYKDPDIPTVESQEVTSDSSDKEITVRYDRLSTPEKPIPQPNPEHPSVPTPNPELPNQETPTPDKPTPEPGTPKTETPVNPDPEVPTYETGKREELPNTGTEANATLASAGIMTLLAGLGLGFFKKKEDEKLEHHHHHH	soluble
MVNVRGPVLEVDDPKSVETSHGTSQLAEVVIRPERGAASPTTVTLWGKWTETVEYLAVGMELLATDLDERTFDGDTQYSTTGESAVVVEPDFLVDVTDIRGWVQCPRMYYLNKLTGLPLKYPVLKGTVVHEVFGDLLRGRDLESSIESRVAEAALDIGLLGETADAVADDVRQNAAAIQGWLQQGRFGEDSWRSEQTLISERFGIKGRADAVRRGMPVELKTGKNLKRSPRFQDKVQAACYGLLLADDIADPPDTGTLLYTKNSALDRSEESGDLSPAKEFSIGPGFLKYVLRVRNEIAAAEYDMSVPTGFEADANCDYCFEQDTCMVVSGRLDQESKAGQLGEPLPEPERAYFERLYRAIEEERREVHAEYRKLWEQSAAERADDDRALVDLDPLGREPLDGGRWALSARRTSDAVSKIREGDRVLASDGHPTQGTAELATVRHLDDEIVVVADEPFELRRIDVYPSELGVDRQLTALHDAVLRGDPDRKDVLFGRREPSFVGDHRPIIDNNESQNEAVNRALAAEDFALIHGPPGTGKTYTLAQTVQALVARGDRVLLSAFTNRAVDNAIEALEAQGFTDVLRWGSESGVRDDMQSYRFDRTGDPRERAAALRDAQVVAATTAACGSRALKQQQFDVAVIDEAGQLTEPGTFLATNRADRFVLVGDHEQLPPVVRAENDLQTSLFEQLIDDYPDAAVMLDRQYRMSQRIQYFASREFYDGQLRPANAEVASQRLADLDGVDVSTLPSALRDAVSFVDPGLEHHHHHH	not soluble
GMSAKDVFHQVVKIALEKDGWQITNDPLTISVGGVNLSIDLGAEKLIAAEREGEKIAVEVKSFLERSSAISEFHTALGQFINYRGALRRRQPERVLYLAVPLTTYKTFFQLDFPKEMIAENQVKMLIYDVEQEVIFQWIN	soluble
MAHHHHHHMHFSPLVFHIHFTRSFSLFFRFCMQLATREGWWEEGGEKEGVFEGAIEEKTVMSFFFDEDSGDEPATKRHCTEQQQRAQGRPHGGFFNGNGEKDEDEDERPVLARAGSDRVGLRLLQGMQKPTSSSSSVLLSGKEKMRVVEAYVPLSVGGFMESSAETAVDNLSQIKPGNVMCLRSPASSASQASTGMNFVRETDLTEEERRYGKRLSSNMTQELFEVGRVDRDTGMLEAIFLDGTRRNLKAYAVRPAGFVEKELFRQWKRDPNSRPVRTVYAAPQDANASPSLSSTTQTTRTTAVDSAKRKNNTAAVELMPWWVSPQLIVRVVEKSAGDLFGKKFVVKSLSRKEGKIRLAPWQRSAGNGESAENSPVDIVGCEALETIVPKVGEQGIIVLGNMRGELVKVMERHRDVNGELASLKVCSTLTGNEFTVGPHEVCQLACPRP	not soluble
GPGSMIRTTAAAARLPQSTQGWVPLMRRALEFPIDSVTFPSHFYLHTVTNGTASTVGFSPQKEPVGLTALRQCAVLVLLSPAATGNGFQDMCITLTKRTATMGSHKSEMSFPGGHVDDDETLRNAAQRETLEEVGLPPSEYEIIGSLTPITTNALSARVTPFVAVATSPAQPYRASPVEVDSIHYLHMSMLLLSASTGHARVIKYRSFTSDRPCFFPCFFASPAQTVVSSAVCRSPKATGVADDCGFDPMLPEDF	not soluble
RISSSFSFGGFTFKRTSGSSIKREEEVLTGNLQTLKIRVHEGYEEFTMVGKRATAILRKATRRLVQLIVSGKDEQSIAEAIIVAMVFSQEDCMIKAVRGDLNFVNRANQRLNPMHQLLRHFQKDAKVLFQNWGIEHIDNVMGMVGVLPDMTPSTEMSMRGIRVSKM	soluble
VAKPKKTQPAATAPRVDVFDAKGKPKTVDASALRIAFADGRSLLVSLPDTADGAITLVAEHADAATHAMLALRPEHHDSITLRIEAEPAAEAEDADDALAGAEMLTLDLTVQHGDALKAAARKALPKQKDIEAWIAPALFADAQLNVRFVDEEEGRTLNHTYRGKDYATNVLTFSYAETEDDPVAADIVLCCPVVEQEAKDQGKPLRAHYAHLIVHGALHAQGYDHEDPAQAEEMEGIETEVLAGLGFPDPYADR	soluble
MKEHVKDKKTAIMGAALKLFTERGFHGTSTAQISKNAGVATGTLFNYFPTKEDLINSLYFEVKGNLGHSMGVGLEAETTFQDKLKRIWSNLVNWGVNNQEEFLFVGQFCSSPYITKFTRDEVMKEYVFLHNFVDEGIKTGEVRDFPAELVIAMFYQGSREVVNLILDSDSSLDKNKIIADGFQILWRGLAKV	not soluble
MILVIDVGNTNTVFGVYDGKKLLNHWRMETSKGKTSDEYGMFIVSLLSYEKIDVGKIEAVVIASVVPPIMYSLEHAIRKYFKLEPMVVGPGIKTGINIKYENPREVGADRIINAVAALELYGGPLIIVDFGTATTFCAVSSKGEYLGGVICPGIKISAEALFQKTAKLPKIDLVKPETVIGRNTVSSMQSGIIYGYVGEVDYIVRRMKKEMKEDNIKVIATGGLARLIASESETIDEINGLLTLEGLRIIYERNK	soluble
MAHHHHHHMSTDIPVNDNETNSSFKLKSEINSIENELKNWFLKRRLNMEINYSLKKLFDSYNFVGLSINNNINLKDKMLWYDIVNGKPELEDTLSMDAKEYKADQYSYLWNKSTTIDNACRLVGSIYFRCLKNNFQLKKSEREHKCIQNFINFNNCRNALKLQQANNIKDSLIKQNMEDNIAKALFERRSLLLDMLEDFK	not soluble
MSLEKSGFIVHQKFDSILQLEDFDSLDRALKESESYYQKLPSNWKTQVRKTSYHKNQMLNSLKILKKILREKNPESRKIQFQNSFLLLETKDEALGRITAYYEVIIEGRFYPEGDFIYPVLETPSDLIVKKDGNKKSVGKIINEVFVPYETREELSHTSVWKKRSKAIVYVKIVDLHLAQLEGSAFVKVPDHIPFRITYSEDNGKEYQSPAESLKGICSSLIPSDLKSCILKYPKEVEMAILKNPRYIFFKLESSAPRGSGGIELIPKRSVAMDPGIPLGIPVLISFESSVLTEKNRIVFVHDRGSQITGHGRLDYFLGTGETAEYQAGKINTQGKIFLILPKIKNEGHHHHHH	soluble
IEAENHKVTDKIKNAQPFLVDVVPAKSVIPELNDDAQKTLLHAGPPIQWSEMTGPMKGACIGAALFERWADNEEDALKIFEAGEVRFIPCHHVKAVGPMGGITSGNMPVFVVENRLEGNEAYCILNEGIGKVLRFGAYSQEVVDRLDWIKDVLGPTIAKALKLSEEGLNLNVLIARSITMGDEFHQRNIAASLNFLKELSPLIIKTDIPEDQKYEVIKFLADTDQFFLNVMMATGKAIVDGARKDTNGTIVTTMTRNGVNFGVRIAETGDQWHTAPVNTPKGLYFTGFSEEDGNPDVGDSAITETVGVGAMAMVAAPGVTRFVGAGGFEDALATSNEMAKICEGNNPTFSIPTWDFQGTCLGIDIRKVVELGITPIINTGIAHKNAGVGQIGAGTVRAPLGCFEKALEAYAEKLGITVE	not soluble
MGSDKIHHHHHHMTNAAKTGVERTYEYKERINGILGMMEQAPAEQRNPVLEGLLRLIMETNERTIDCAENGKPFVSTWYGNAPEILTAMDIHFIVPVFDILLHEYFTDLYDVKEADKISLPDDICSLIRFGAYAIENKLLPRPTAIISMLEPCDAELMLHQYYQSSEHWGGVPTFGLDPAYGSTDEDFMYFAGELKRLIHFLVEITGQKYDVDKLRKVVAETNTQYELWAEYNELRRVTPCPHGSFQGSVPLWTLTQFISSGDPRATELIRMMIMDAEAKVKAGIGAVPNEQIRILWADLAPQWGDLLAPWLAEEWGANVVMDYQGYSPYTHIDTTSEDTMLYGLARRALHEVPMIRQGRGTVEVMIEDMTRIIKDYTINCVFWPGHMGHKDVSGSVHFMQELCRSLNVPLLCLTTSLFDERYTPLDKVKQQMSEFFEATGWSKNSST	not soluble
